The values below come from US20230111363A1 (LMMUNOMETABOLISM DEVELOPMENT, published 2023).

The target of test [1] is T1, human monocarboxylate transporter 1 (MCT1) (human, UniProt P53985 1-500).
T1 sequence: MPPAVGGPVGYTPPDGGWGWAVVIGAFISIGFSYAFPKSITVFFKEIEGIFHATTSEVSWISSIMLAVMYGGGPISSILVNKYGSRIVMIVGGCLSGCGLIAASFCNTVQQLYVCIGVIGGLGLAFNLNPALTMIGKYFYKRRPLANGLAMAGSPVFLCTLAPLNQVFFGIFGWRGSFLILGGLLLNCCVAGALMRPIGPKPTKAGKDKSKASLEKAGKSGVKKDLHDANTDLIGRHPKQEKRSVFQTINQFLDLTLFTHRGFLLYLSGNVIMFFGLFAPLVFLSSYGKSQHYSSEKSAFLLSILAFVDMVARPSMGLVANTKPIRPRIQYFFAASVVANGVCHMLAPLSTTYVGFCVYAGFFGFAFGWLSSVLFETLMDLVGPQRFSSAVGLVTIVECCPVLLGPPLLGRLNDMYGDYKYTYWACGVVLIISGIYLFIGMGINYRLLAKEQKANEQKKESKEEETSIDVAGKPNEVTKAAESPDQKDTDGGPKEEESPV
Kind of test: cell-based or functional assay.

Test [2] concerns the target T1, human monocarboxylate transporter 1 …. The experiment in a line: cell-based or functional assay. This is another data set of the same source.
For test [3] the target is unchanged. Kind of test: competition MSD binding assay, antibody titrated with HEK WT cells expressing MCT1, apparent KD, screening at 25 C. As for the experimental part:
The mix was incubated at 37° C. for 1-2 days. After incubation, the incubated samples were spun down for 5 min at 500×g to remove cells. A 96-well multi-array plate (Meso Scale Diagnostics, Cat. #L15XA-3) was coated at 4° C. overnight with 1 μg/mL of goat anti human FC in phosphate buffered saline (PBS). Following coating, plates were washed 3 times with 150 μL PBST (PBS with 0.05% Tween 20) and blocked with 150 μL/well of PBS 3% blocker A buffer (Cat #R93BA-1) at 25° C. for 1 hr. Plates were then washed 3 times with PBST. 50 μL of the preincubated antibody: cell dilution series was transferred to the wells and incubated at 25° C. with 700 rpm shaking for 1 hr. Plates were washed 3 times with PBST. Then 100 μL of 1 μg/mL anti-human kappa-biotin antibody (Cat. #2060-08) was added, and plates were incubated at 25° C. with 700 rpm shaking […]. Plates were washed 3 times with PBST, followed by addition of 100 μL of 1 μg/mL MSD Sulfo-tag streptavidin antibody (Meso Scale Diagnostics Cat. #R32 AD1), and plates were incubated at 25° C. with 700 rpm shaking for 1 hr. Plates were washed 3 times with PBST, 150 μL/well of 1× Read Buffer T was added to the wells and analyzed on a SECTOR® Imager 6000 (Meso Scale Diagnostics) 15 min after buffer addition. The apparent KD is determined by fitting a sigmoidal curve to the electrochemiluminescence (ECL) response vs. log (MCT1 receptor concentration) using assay development tool kit graphed with normalized ECL values.

B1: anti-human MCT1 antibody Ab7 (antibody, human IgG1, kappa, V domains shown)
VH: QVQLVQSGAEVKKPGASVKVSCTVSGRSRTNYHLQWVRQAPGQGLEWMGFIRSSGNTEYNSEFKSRVTMTRDTSTSTVYMELSSLRSEDTAVYYCARNRWYHGTYYSPGYYVMDAWGQGTLVTVSS
VL: EIVLTQSPGTLSLSPGERATLSCKGSQNIENYLAWYQQKPGQAPRLLIYNRHNLQTGIPDRFSGSGSGTDFTLTISRLEPEDFAVYYCYQYSDGYTFGGGTKVEIKR
notes: IgG1EN backbone
Consider B1, for which the “IC50 of inhibition of MCT1 mediated transport (bromopyruvate assay, HEK293T cells)” value in test [1] came to 28 nM. For the same molecule, in test [2], the “IC50 of inhibition of CD4 T cell proliferation” value amounted to 2 nM and the “IC50 of inhibition of CD8 T cell proliferation” value came out at 4 nM. In test [3], the Kd was 0.47 nM.

B2: anti-human MCT1 antibody Ab8 (antibody, human IgG1, kappa, V domains shown)
VH: QVQLVQSGAEVKKPGASVKVSCTVSGRSLTNYHLQWVRQAPGQGLEWMGFIRSSGNTIYNSEFKSRVTMTRDTSTSTVYMELSSLRSEDTAVYYCARNRWYHGTYYSPGYYVMDAWGQGTLVTVSS
VL: EIVLTQSPGTLSLSPGERATLSCKGSQNIENYLAWYQQKPGQAPRLLIYNRHNLQTGIPDRFSGSGSGTDFTLTISRLEPEDFAVYYCYQYSDGYTFGGGTKVEIKR
notes: IgG1EN backbone
In the case of B2, the “IC50 of inhibition of MCT1 mediated transport (bromopyruvate assay, HEK293T cells)” value in test [1] was 21 nM. Moreover, in test [2], the “IC50 of inhibition of CD4 T cell proliferation” value was 3 nM and the “IC50 of inhibition of CD8 T cell proliferation” value is 3 nM. Besides, the Kd in test [3] turned out to be 0.55 nM.

B3: anti-human MCT1 antibody Ab14 (antibody, human IgG1, kappa, V domains shown)
VH: QVQLVQSGAEVKKPGASVKVSCTVSGRSLTNYHLQWVRQAPGQGLEWMGFIRSSGNTEYNSEFKSRVTMTRDTSTSTVYMELSSLRSEDTAVYYCARNRWYHGTYYSPGYYVMDPWGQGTLVTVSS
VL: EIVLTQSPGTLSLSPGERATLSCKGSQNIENYLAWYQQKPGQAPRLLIYNRHNLQTGIPDRFSGSGSGTDFTLTISRLEPEDFAVYYCYQYSDGYTFGGGTKVEIKR
notes: IgG1EN backbone
Consider B3, for which the “IC50 of inhibition of MCT1 mediated transport (bromopyruvate assay, HEK293T cells)” value in test [1] amounted to 40 nM. In test [2], the “IC50 of inhibition of CD4 T cell proliferation” value is 5 nM and the “IC50 of inhibition of CD8 T cell proliferation” value came to 6 nM. Also, the Kd in test [3] was found to be 1.31 nM.

B4: anti-human MCT1 antibody Ab16 (antibody, human IgG1, kappa, V domains shown)
VH: QVQLVQSGAEVKKPGASVKVSCTRSGRSLTNYHLQWVRQAPGQGLEWMGFIRSSGNTEYNSEFKSRVTMTRDTSTSTVYMELSSLRSEDTAVYYCARNRWYHGTYYSPGYYVMDAWGQGTLVTVSS
VL: EIVLTQSPGTLSLSPGERATLSCKGSQNIENYLAWYQQKPGQAPRLLIYNRHNLQTGIPDRFSGSGSGTDFTLTISRLEPEDFAVYYCYQYSDGYTFGGGTKVEIKR
notes: IgG1EN backbone
For B4, the “IC50 of inhibition of MCT1 mediated transport (bromopyruvate assay, HEK293T cells)” value in test [1] came out at 31 nM. Also, in test [2], the “IC50 of inhibition of CD4 T cell proliferation” value was found to be 5 nM and the “IC50 of inhibition of CD8 T cell proliferation” value was 3 nM. Besides, the Kd in test [3] is 0.71 nM.

B5: anti-human MCT1 antibody Ab9 (antibody, human IgG1, kappa, V domains shown)
VH: QVQLVQSGAEVKKPGASVKVSCTVSGRSLTNYHIQWVRQAPGQGLEWMGFIRSSGNTEYNSEFKSRVTMTRDTSTSTVYMELSSLRSEDTAVYYCARNRWYHGTYYSPGYYVMDAWGQGTLVTVSS
VL: EIVLTQSPGTLSLSPGERATLSCKGSQNIENYLAWYQQKPGQAPRLLIYNRHNLQTGIPDRFSGSGSGTDFTLTISRLEPEDFAVYYCYQYSDGYTFGGGTKVEIKR
notes: IgG1EN backbone
Take B5: the “IC50 of inhibition of MCT1 mediated transport (bromopyruvate assay, HEK293T cells)” value in test [1] was determined as 35 nM. In test [2], the “IC50 of inhibition of CD4 T cell proliferation” value is 4 nM and the “IC50 of inhibition of CD8 T cell proliferation” value is 5 nM. Besides, the Kd in test [3] was determined as 4.56 nM.

B6: anti-human MCT1 antibody Ab17 (antibody, human IgG1, kappa, V domains shown)
VH: QVQLVQSGAEVKKPGASVKVSCTVSGRSLTNIHLQWVRQAPGQGLEWMGFIRSSGNTEYNSEFKSRVTMTRDTSTSTVYMELSSLRSEDTAVYYCARNRWYHGTYYSPGYYVMDAWGQGTLVTVSS
VL: EIVLTQSPGTLSLSPGERATLSCKGSQNIENYLAWYQQKPGQAPRLLIYNRHNLQTGIPDRFSGSGSGTDFTLTISRLEPEDFAVYYCYQYSDGYTFGGGTKVEIKR
notes: IgG1EN backbone
B6: the “IC50 of inhibition of MCT1 mediated transport (bromopyruvate assay, HEK293T cells)” value in test [1] amounted to 38 nM. For the same molecule, in test [2], the “IC50 of inhibition of CD4 T cell proliferation” value came to 5 nM and the “IC50 of inhibition of CD8 T cell proliferation” value worked out at 2 nM. Besides, in test [3], the Kd amounted to 1.04 nM.

B7: anti-human MCT1 antibody Ab10 (antibody, human IgG1, kappa, V domains shown)
VH: QVQLVQSGAEVKKPGASVKVSCTVSGRSLTGYHLQWVRQAPGQGLEWMGFIRSSGNTEYNSEFKSRVTMTRDTSTSTVYMELSSLRSEDTAVYYCARNRWYHGTYYSPGYYVMDAWGQGTLVTVSS
VL: EIVLTQSPGTLSLSPGERATLSCKGSQNIENYLAWYQQKPGQAPRLLIYNRHNLQTGIPDRFSGSGSGTDFTLTISRLEPEDFAVYYCYQYSDGYTFGGGTKVEIKR
notes: IgG1EN backbone
For B7, the “IC50 of inhibition of MCT1 mediated transport (bromopyruvate assay, HEK293T cells)” value in test [1] is 39 nM. Further, in test [2], the “IC50 of inhibition of CD4 T cell proliferation” value amounted to 3 nM and the “IC50 of inhibition of CD8 T cell proliferation” value worked out at 7 nM. Also, the Kd in test [3] worked out at 0.85 nM.

B8: anti-human MCT1 antibody Ab11 (antibody, human IgG1, kappa, V domains shown)
VH: QVQLVQSGAEVKKPGASVKVSCTVSGRSLTNYHLQWVRQAPGQGLEWMGFIRSSGNTEYNSEFKSRVTMTRDTSTSTVYMELSSLRSEDTAVYYCARNRWHHGTYYSPGYYVMDAWGQGTLVTVSS
VL: EIVLTQSPGTLSLSPGERATLSCKGSQNIENYLAWYQQKPGQAPRLLIYNRHNLQTGIPDRFSGSGSGTDFTLTISRLEPEDFAVYYCYQYSDGYTFGGGTKVEIKR
notes: IgG1EN backbone
Turning to B8, in test [1], the “IC50 of inhibition of MCT1 mediated transport (bromopyruvate assay, HEK293T cells)” value came to 35 nM. Besides, in test [2], the “IC50 of inhibition of CD4 T cell proliferation” value is 4 nM and the “IC50 of inhibition of CD8 T cell proliferation” value is 5 nM. For the same molecule, in test [3], the Kd is 1.91 nM.

B9: anti-human MCT1 antibody Ab15 (antibody, human IgG1, kappa, V domains shown)
VH: QVQLVQSGAEVKKPGASVKVSCTVSGRSLTNYHLQWVRQAPGQGLEWMGFIRSSGNTEYNSEFKSRVTMTRDTSTSTVYMELSSLRSEDTAVYYCARNLWYHGTYYSPGYYVMDAWGQGTLVTVSS
VL: EIVLTQSPGTLSLSPGERATLSCKGSQNIENYLAWYQQKPGQAPRLLIYNRHNLQTGIPDRFSGSGSGTDFTLTISRLEPEDFAVYYCYQYSDGYTFGGGTKVEIKR
notes: IgG1EN backbone
B9: the “IC50 of inhibition of MCT1 mediated transport (bromopyruvate assay, HEK293T cells)” value in test [1] is 48 nM. In test [2], the “IC50 of inhibition of CD4 T cell proliferation” value was 5 nM and the “IC50 of inhibition of CD8 T cell proliferation” value amounted to 8 nM. In test [3], the Kd came to 1.96 nM.

B10: anti-human MCT1 antibody Ab13 (antibody, human IgG1, kappa, V domains shown)
VH: QVQLVQSGAEVKKPGASVKVSCTVSGRSLTNYHLQWVRQAPGQGLEWMGFIRSSGNTEYNSEFKSRVTMTRDTSTSTVYMELSSLRSEDTAVYYCARNRWRHGTYYSPGYYVMDAWGQGTLVTVSS
VL: EIVLTQSPGTLSLSPGERATLSCKGSQNIENYLAWYQQKPGQAPRLLIYNRHNLQTGIPDRFSGSGSGTDFTLTISRLEPEDFAVYYCYQYSDGYTFGGGTKVEIKR
notes: IgG1EN backbone
B10: in test [1], the “IC50 of inhibition of MCT1 mediated transport (bromopyruvate assay, HEK293T cells)” value was determined as 42 nM. Also, in test [2], the “IC50 of inhibition of CD4 T cell proliferation” value is 3 nM and the “IC50 of inhibition of CD8 T cell proliferation” value was found to be 4 nM. In addition, the Kd in test [3] worked out at 2.82 nM.

B11: anti-human MCT1 antibody Ab18 (antibody, human IgG1, kappa, V domains shown)
VH: QVQLVQSGAEVKKPGASVKVSCTVSGRSLTNYHLGWVRQAPGQGLEWMGFIRSSGNTEYNSEFKSRVTMTRDTSTSTVYMELSSLRSEDTAVYYCARNRWYHGTYYSPGYYVMDAWGQGTLVTVSS
VL: EIVLTQSPGTLSLSPGERATLSCKGSQNIENYLAWYQQKPGQAPRLLIYNRHNLQTGIPDRFSGSGSGTDFTLTISRLEPEDFAVYYCYQYSDGYTFGGGTKVEIKR
notes: IgG1EN backbone
As to B11, in test [1], the “IC50 of inhibition of MCT1 mediated transport (bromopyruvate assay, HEK293T cells)” value stood at 41 nM. Besides, in test [2], the “IC50 of inhibition of CD4 T cell proliferation” value turned out to be 6 nM and the “IC50 of inhibition of CD8 T cell proliferation” value was 2 nM. Moreover, the Kd in test [3] is 5.14 nM.

B12: anti-human MCT1 antibody Ab12 (antibody, human IgG1, kappa, V domains shown)
VH: QVQLVQSGAEVKKPGASVKVSCTVSGRSLTNYHLVWVRQAPGQGLEWMGFIRSSGNTEYNSEFKSRVTMTRDTSTSTVYMELSSLRSEDTAVYYCARNRWYHGTYYSPGYYVMDAWGQGTLVTVSS
VL: EIVLTQSPGTLSLSPGERATLSCKGSQNIENYLAWYQQKPGQAPRLLIYNRHNLQTGIPDRFSGSGSGTDFTLTISRLEPEDFAVYYCYQYSDGYTFGGGTKVEIKR
notes: IgG1EN backbone
As to B12, the “IC50 of inhibition of MCT1 mediated transport (bromopyruvate assay, HEK293T cells)” value in test [1] is 39 nM. For the same molecule, in test [2], the “IC50 of inhibition of CD4 T cell proliferation” value was 4 nM and the “IC50 of inhibition of CD8 T cell proliferation” value worked out at 5 nM. Besides, the Kd in test [3] came to 1.64 nM.
